Laboratory results taken from patent US20210292426A1.

Columns and labels:
[1] = biological target: human CD40 expressed on cells (human) (UniProt P25942); assay: flow cytometry, Raji cells
[2] = biological target: human CD40 expressed on cells (human) (UniProt P25942); assay: flow cytometry, primary human B cells
[3] = biological target: human CD40 extracellular domain with C-terminal His-AviTag (human) (UniProt P25942); assay: SPR (Biacore), antibody captured, CD40 ECD analyte

EC50 [1]: 0.09 µg/mL
EC50 [2]: 0.333 nM
Kd [3]: 4.6 nM
koff [3]: 0.00781 s⁻¹
kon [3]: 1.69e+06 M⁻¹ s⁻¹
B1: P1AD4470 (CD40 IgG1, control) (antibody, from a related filing, V domains shown)
VH: EVQLVESGGGLVQPGGSLRLSCAASGYSFTGYYIHWVRQAPGKGLEWVARVIPNAGGTSYNQKFKGRFTLSVDNSKNTAYLQMNSLRAEDTAVYYCAREGIYWWGQGTLVTVSS
VL: DIQMTQSPSSLSASVGDRVTITCRSSQSLVHSNGNTFLHWYQQKPGKAPKLLIYTVSNRFSGVPSRFSGSGSGTDFTLTISSLQPEDFATYFCSQTTHVPWTFGQGTKVEIKR
